Test results as given in article PMC5928183, “A Role for the Non-Receptor Tyrosine Kinase Abl2/Arg in Experimental Neuroinflammation” (Journal of Neuroimmune Pharmacology, 2018).

Target: actin filaments (F-actin) from chicken skeletal muscle (chicken, UniProt P68139 1-377)
Assay: co-sedimentation; increasing amounts of Arg/Arg V1030M incubated with 1 μM actin filaments; 40 mM Hepes pH 7.25, 150 mM KCl, 2 mM MgCl2, 0.01% NP40, 4.5% glycerol; supernatant and pellet on SDS-PAGE, Coomassie R250 and densitometry; three trials
Conditions: both partners purified

B1: Arg (Abl2/Arg non-receptor tyrosine kinase), valine at position 1030 (enzyme)
chain: MGQQVGRVGEAPGLQQPQPRGIRGSSAARPSGRRRDPAGRTADAGFNVFTQHDHFASCVEDGFEGDKTGGSSPEVLHRPFGCDAESQALNEAIRWSSKENLLGATESDPNLFVALYDFVASGDNTLSITKGEKLRVLGYNQNGEWSEVRSKNGQGWVPSNYITPVNSLEKHSWYHGPVSRSAAEYLLSSLINGSFLVRESESSPGQLSISLRYEGRVYHYRINTTTDSKVYVTAESRFSTLAELVHHHSTVADGLVTTLHYPAPKCNKPTVYGVSPIHDKWEMERTDITMKHKLGGGQYGEVYVGVWKKYSLTVAVKTFKEDTMEVEEFLKEAAVMKEIKHPNLVQLLGVCTLEPPFYIVTEYMPYGNLLDYLRECSREEVTAVVLLYMATQISSAMEYLEKKNFIHRDLAARNCLVGENHVVKVADFGLSRLMTGDTYTAHAGAKFPIKWTAPESLAYNTFSIKSDVWAFGVLLWEIATYGMSPYPGIDLSQVYDLLEKGYRMEQPEGCPPKVYELMRACWKWSPADRPSFAETHQAFETMFHDSSISEEVAEELGRTASSSSVVPYLPRLPLLPSKTRTLRKQGENKENLDGGLDAAESLASSSAPAGFIRSTQASSGSPALPRKQRDKSPSSLLEDAKETCFTRDRKGGFFSSFMKKRNAPTPPKRSSSFREMENQPHKKYELTGNFSPVASLQNADGFSVAPSQQEPNLVPAKCYGGSFAQRNLCADDDSGGGGGSGTAGGGWSGITGFFTPRLIKKTLGLRAGKPTASDDTSKPFPRSNSTSSMSSGLPEQDRMAMTLPRNCQRSKLQLERTVSTSSQPEENVDRANDMLPKKSEEGAAPARERPKAKLLPRGATALPLRAPDPAITESDSPGVGVAGVAAAPKGKERNGGTRLGVAGVPEDGEQLGWSSPAKAVAVLPTTHNHKVPVLISPTLKHTPADVQLIGTDSQGNKFKLLSEHQVTSSGDKDRPRRVKPKCAPPPPPVMRLLQHPSTCSDPEEEPTAPPAGQHTPETQEGGKKAAPGPVPSSGKPGRPVMPPPQVPLPTSSISPAKMANGTAGTKVALRKTKQAAEKISADKISKEALLECADLLSSAITEPVPNSQLVDTGHQLLDYCSGYVDSIPQTRNKFAFREAVSKLELSLQELQVSSTAAGVPGTNPVLNNLLSCVQEISDVVQR
notes: SNP rs30466582); neither tags nor construct limits are stated here; also called Arg_1030V; Abelson related gene; source: Hi5 cells via baculoviral vectors, purified as previously described (Wang et al., 2001)
**Q.** How did the Kd turn out when B1 was run?
**A.** 0.71 ± 0.5 µM

B2: Arg V1030M (enzyme)
chain: MGQQVGRVGEAPGLQQPQPRGIRGSSAARPSGRRRDPAGRTADAGFNVFTQHDHFASCVEDGFEGDKTGGSSPEVLHRPFGCDAESQALNEAIRWSSKENLLGATESDPNLFVALYDFVASGDNTLSITKGEKLRVLGYNQNGEWSEVRSKNGQGWVPSNYITPVNSLEKHSWYHGPVSRSAAEYLLSSLINGSFLVRESESSPGQLSISLRYEGRVYHYRINTTTDSKVYVTAESRFSTLAELVHHHSTVADGLVTTLHYPAPKCNKPTVYGVSPIHDKWEMERTDITMKHKLGGGQYGEVYVGVWKKYSLTVAVKTFKEDTMEVEEFLKEAAVMKEIKHPNLVQLLGVCTLEPPFYIVTEYMPYGNLLDYLRECSREEVTAVVLLYMATQISSAMEYLEKKNFIHRDLAARNCLVGENHVVKVADFGLSRLMTGDTYTAHAGAKFPIKWTAPESLAYNTFSIKSDVWAFGVLLWEIATYGMSPYPGIDLSQVYDLLEKGYRMEQPEGCPPKVYELMRACWKWSPADRPSFAETHQAFETMFHDSSISEEVAEELGRTASSSSVVPYLPRLPLLPSKTRTLRKQGENKENLDGGLDAAESLASSSAPAGFIRSTQASSGSPALPRKQRDKSPSSLLEDAKETCFTRDRKGGFFSSFMKKRNAPTPPKRSSSFREMENQPHKKYELTGNFSPVASLQNADGFSVAPSQQEPNLVPAKCYGGSFAQRNLCADDDSGGGGGSGTAGGGWSGITGFFTPRLIKKTLGLRAGKPTASDDTSKPFPRSNSTSSMSSGLPEQDRMAMTLPRNCQRSKLQLERTVSTSSQPEENVDRANDMLPKKSEEGAAPARERPKAKLLPRGATALPLRAPDPAITESDSPGVGVAGVAAAPKGKERNGGTRLGVAGVPEDGEQLGWSSPAKAVAVLPTTHNHKVPVLISPTLKHTPADVQLIGTDSQGNKFKLLSEHQVTSSGDKDRPRRVKPKCAPPPPPVMRLLQHPSTCSDPEEEPTAPPAGQHTPETQEGGKKAAPGPMPSSGKPGRPVMPPPQVPLPTSSISPAKMANGTAGTKVALRKTKQAAEKISADKISKEALLECADLLSSAITEPVPNSQLVDTGHQLLDYCSGYVDSIPQTRNKFAFREAVSKLELSLQELQVSSTAAGVPGTNPVLNNLLSCVQEISDVVQR
notes: SNP rs30466582); neither tags nor construct limits are stated here; also called Arg_1030M; source: Hi5 cells via baculoviral vectors, purified as previously described (Wang et al., 2001)
**Q.** For B2, which Kd is on record?
**A.** 0.86 ± 0.64 µM
